Reference: US20200216515A1 (CELLECTIS, published 2020)

Target: T1, CLL-1 (UniProt Q5QGZ9 65-265, limits assumed)
T1 sequence (looked up): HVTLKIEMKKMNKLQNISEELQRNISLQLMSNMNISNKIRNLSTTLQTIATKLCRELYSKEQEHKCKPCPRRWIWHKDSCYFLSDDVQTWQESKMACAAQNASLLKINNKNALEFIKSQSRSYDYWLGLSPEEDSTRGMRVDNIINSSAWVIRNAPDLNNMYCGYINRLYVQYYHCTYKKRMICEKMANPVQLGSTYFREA
Assay: method not stated (Table 2, affinity of antibodies for CLL-1)

B1: M22 (antibody, V domains shown)
VH: QVQLQQPGAELVKPGASVKLSCKASGYTFTRYWMHWVKQRPGQGLEWIGNIDPSDTETHYNQQFKDKATLTVDKSSSTAYMQLSSLTSEDSAVYYCAIYYGNPSYYAMDYWGQGTSVTVSS
VL: DIVMTQSPSSLTVTAGEKVTMSCKSSQNLLNSGNQKKYLNWYQQKPGQPPKLLIYWASTRESGVPDRFTGSGSGTDFTLTISSVQAEDLAVYFCQNDYSYPFTFGAGTKLELK
Kd: 0.388 nM

B2: G12 (antibody, V domains shown)
VH: QVQLQQPGAELVKPGASMKMSCKASGYTFPSSNIHWLKQTPGQGLEWIGVIYPGNGDTSYNQKFKDKATLTTDKSSSTAYMQLSSLTSEDSAIYFCARVYNWHFDVWGAGTTVTVSS
VL: NIVLTQSPASLAVSLGQRATISCRASESVDGYGDIFMLWYQQKPGQPPKLLIYFASNLESGVPARFSGSGSRTDFTLTIDPVEADDAATYYCQQNNEDPYTFGGGTKLEIK
Kd: 0.07 nM

B3: M26 (antibody, V domains shown)
VH: EVQLQQSGPELVKPGASVKMSCKASGYTFTSYFIHWVKQKPGQGLEWIGFINPYNDGSKYNEKFKGKATLTSDKSSSTAYMELSSLTSEDSAVYYCTRDDGYYGYAMDYWGQGTLVTVSS
VL: DIQMTQSPSSLSASLGERVSLTCRATQELSGYLSWLQQKPDGTIKRLIYAASTLDSGVPKRFSGNRSGSDYSLTISSLESEDFADYYCLQYAIYPYTFGGGTKLEIK
Kd: 0.214 nM

B4: M29 (antibody, V domains shown)
VH: EVQLQQSGPELVKPGASVKMSCKASGYIFTSYVMYWVKQKPGQGLEWIGYINPYNDGTKYNEKFKGKATLTSDKSSSTAYMELSSLTSEDSAVYYCARYYDYDYYFDYWGQGTTLTVSS
VL: DIQMTQSPSSLSASLGGKVTITCKASQDINKYIAWYQHKPGKGPRLLIHYTSTLQPGIPSRFSGSGSGRDYSFSISNLEPEDIATYYCLQYDYLWTFGGGTKLEIK
Kd: 1.48 nM
